According to the supplement of paper PMC10567573:

B1: ZNF193 (parent)
chain: QCIECGKSFNRHCNLIRHQKIHTV
B2: WSB1 (parent)
chain: DLKDDGNMMKVLRGHQNWVYSCAF

Variants of: B1
Assay: protein stability index of a GFP-peptide fusion (GPS, HEK-293T) (PSI 1-6); higher = more stable
Details: c terminus: a fixed tail appended
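Further: lentivirally expressed fusions sorted by FACS into six bins by GFP to DsRed ratio, PSI derived from sequencing read proportions per bin multiplied by bin number.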

| Variant | protein stability index |
| --- | --- |
| F9S | 2.83 |
| F9T | 2.59 |
| F9V | 1.92 |
| F9W | 2.77 |
| F9Y | 3.01 |
| N10A | 3.54 |
| N10C | 3 |
| N10D | 3.88 |
| N10E | 3.92 |
| N10F | 3.02 |
| N10G | 3.29 |
| N10H | 3.91 |
| N10I | 3.28 |
| N10K | 4.64 |
| N10L | 2.48 |
| N10M | 3.14 |
| N10P | 2.8 |
| N10Q | 3.73 |
| N10R | 3.97 |
| N10S | 3.48 |
| N10T | 4.08 |
| N10V | 3.75 |
| N10W | 3.51 |
| N10Y | 2.98 |
| R11A | 3.38 |

| Variant | protein stability index |
| --- | --- |
| R11C | 3.55 |
| R11D | 4.37 |
| R11E | 3.76 |
| R11F | 3.07 |
| R11G | 3.25 |
| R11H | 3.5 |
| R11I | 2.89 |
| R11K | 3.7 |
| R11L | 3.5 |
| R11M | 2.86 |
| R11N | 4.26 |
| R11P | 3.21 |
| R11Q | 2.96 |
| R11S | 4.1 |
| R11T | 4.4 |
| R11V | 3.21 |
| R11W | 2.62 |
| R11Y | 3.04 |
| H12A | 3.48 |
| H12C | 2.92 |
| H12D | 3.36 |
| H12E | 3.81 |
| H12F | 3.06 |
| H12G | 3.02 |
| H12I | 3.43 |

| Variant | protein stability index |
| --- | --- |
| H12K | 3.98 |
| H12L | 4.23 |
| H12M | 3.65 |
| H12N | 3.52 |
| H12P | 3.74 |
| H12Q | 4 |
| H12R | 3.22 |
| H12S | 3.22 |
| H12T | 3.71 |
| H12V | 3.76 |
| H12W | 3.19 |
| H12Y | 3.27 |
| C13A | 4.31 |
| C13D | 4.1 |
| C13E | 4.55 |
| C13F | 2.62 |
| C13G | 3.75 |
| C13H | 3.56 |
| C13I | 3.04 |
| C13K | 3.74 |
| C13L | 2.73 |
| C13M | 2.91 |
| C13N | 3.2 |
| C13P | 2.99 |
| C13Q | 3.32 |

| Variant | protein stability index |
| --- | --- |
| C13R | 3.91 |
| C13S | 3.95 |
| C13T | 3.29 |
| C13V | 3.88 |
| C13W | 3.04 |
| C13Y | 3.29 |
| N14A | 3.9 |
| N14C | 3.43 |
| N14D | 5.09 |
| N14E | 3.94 |
| N14F | 2.32 |
| N14G | 2.72 |
| N14H | 3.44 |
| N14I | 2.6 |
| N14K | 3.38 |
| N14L | 3.11 |
| N14M | 3.5 |
| N14P | 2.25 |
| N14Q | 4.31 |
| N14R | 3.12 |
| N14S | 3.71 |
| N14T | 3.44 |
| N14V | 2.83 |
| N14W | 2.29 |
| N14Y | 2.33 |

| Variant | protein stability index |
| --- | --- |
| L15A | 2.82 |
| L15C | 3.6 |
| L15D | 3.18 |
| L15E | 3.06 |
| L15F | 3.32 |
| L15G | 3.04 |
| L15H | 4.19 |
| L15I | 2.24 |
| L15K | 2.94 |
| L15M | 3.35 |
| L15N | 3.29 |
| L15P | 2.39 |
| L15Q | 2.9 |
| L15R | 3.01 |
| L15S | 2.62 |
| L15T | 2.29 |
| L15V | 2.34 |
| L15W | 4.43 |
| L15Y | 3.35 |
| I16A | 2.74 |
| I16C | 3.9 |
| I16D | 2.96 |
| I16E | 3.44 |
| I16F | 2.43 |
| I16G | 3.02 |

| Variant | protein stability index |
| --- | --- |
| I16H | 3.18 |
| I16K | 4 |
| I16L | 3.29 |
| I16M | 3.1 |
| I16N | 2.89 |
| I16P | 2.56 |
| I16Q | 3.64 |
| I16R | 3.51 |
| I16S | 3.41 |
| I16T | 3.3 |
| I16V | 3.69 |
| I16W | 2.46 |
| I16Y | 2.94 |
| R17A | 3.31 |
| R17C | 3.57 |
| R17D | 3.78 |
| R17E | 4.18 |
| R17F | 2.22 |
| R17G | 3.07 |
| R17H | 3.13 |
| R17I | 2.31 |
| R17K | 3.74 |
| R17L | 2.9 |
| R17M | 2.95 |
| R17N | 3.24 |

| Variant | protein stability index |
| --- | --- |
| R17P | 2.15 |
| R17Q | 3.91 |
| R17S | 3.4 |
| R17T | 3.75 |
| R17V | 2.99 |
| R17W | 2.66 |
| R17Y | 2.52 |
| H18A | 2.45 |
| H18C | 2.55 |
| H18D | 1.97 |
| H18E | 2.33 |
| H18F | 2.4 |
| H18G | 2.91 |
| H18I | 2 |
| H18K | 2.38 |
| H18L | 1.71 |
| H18M | 1.65 |
| H18N | 2.31 |
| H18P | 2.05 |
| H18Q | 2.24 |
| H18R | 1.87 |
| H18S | 2.36 |
| H18T | 1.66 |
| H18V | 1.45 |
| H18W | 2.21 |

| Variant | protein stability index |
| --- | --- |
| H18Y | 1.41 |
| Q19A | 2.84 |
| Q19C | 3.78 |
| Q19D | 2.03 |
| Q19E | 3.73 |
| Q19F | 2.73 |
| Q19G | 2.5 |
| Q19H | 2.72 |
| Q19I | 2.8 |
| Q19K | 3.27 |
| Q19L | 2.75 |
| Q19M | 3.48 |
| Q19N | 2.81 |
| Q19P | 1.99 |
| Q19R | 2.98 |
| Q19S | 3.46 |
| Q19T | 2.79 |
| Q19V | 2.5 |
| Q19W | 2.25 |
| Q19Y | 2.59 |
| K20A | 3.85 |
| K20C | 3.47 |
| K20D | 2.83 |
| K20E | 3.29 |
| K20F | 2.95 |

| Variant | protein stability index |
| --- | --- |
| K20G | 2.38 |
| K20H | 2.9 |
| K20I | 2.2 |
| K20L | 2.93 |
| K20M | 3.13 |
| K20N | 2.61 |
| K20P | 2.7 |
| K20Q | 3.5 |
| K20R | 3.4 |
| K20S | 3.3 |
| K20T | 2.63 |
| K20V | 2.66 |
| K20W | 2.22 |
| K20Y | 2.2 |
| I21A | 4 |
| I21C | 3.85 |
| I21D | 3.93 |
| I21E | 4.1 |
| I21F | 3.15 |
| I21G | 3.51 |
| I21H | 3.77 |
| I21K | 4.25 |
| I21L | 3.48 |
| I21M | 3.72 |
| I21N | 3.52 |

| Variant | protein stability index |
| --- | --- |
| I21P | 3.1 |
| I21Q | 4.49 |
| I21R | 3.81 |
| I21S | 4 |
| I21T | 4.39 |
| I21V | 3.74 |
| I21W | 3.55 |
| I21Y | 3.6 |
| H22A | 2.76 |
| H22C | 4.83 |
| H22D | 2.08 |
| H22E | 2.63 |
| H22F | 1.63 |
| H22G | 2.94 |
| H22I | 2.25 |
| H22K | 2.41 |
| H22L | 2.88 |
| H22M | 2.34 |
| H22N | 2.78 |
| H22P | 2.62 |
| H22Q | 2.7 |
| H22R | 2.89 |
| H22S | 2.45 |
| H22T | 2.11 |
| H22V | 2.32 |

| Variant | protein stability index |
| --- | --- |
| H22W | 1.74 |
| H22Y | 1.56 |
| T23C | 3.58 |
| T23D | 3.13 |
| T23E | 4.38 |
| T23F | 2.85 |
| T23G | 3.31 |
| T23H | 3.9 |
| T23I | 2.6 |
| T23K | 3.47 |
| T23L | 2.7 |
| T23M | 3.33 |
| T23N | 4.08 |
| T23P | 3.23 |
| T23Q | 4.09 |
| T23R | 3.91 |
| T23S | 3.68 |
| T23V | 3.26 |
| T23W | 2.56 |
| T23Y | 3.31 |
| V24A | 4.26 |
| V24C | 3.99 |
| V24D | 3.83 |
| V24E | 4.36 |
| V24F | 3.41 |

| Variant | protein stability index |
| --- | --- |
| V24G | 3.56 |
| V24H | 3.83 |
| V24I | 2.8 |
| V24K | 4.68 |
| V24L | 3.43 |
| V24M | 4.19 |
| V24N | 4.22 |
| V24P | 4.21 |
| V24Q | 3.87 |
| V24R | 3.83 |
| V24S | 4.21 |
| V24T | 3.84 |
| V24W | 2.75 |
| V24Y | 3.4 |

Variants of: B2
Assay: as above
Details: c terminus: a fixed tail appended

| Variant | protein stability index |
| --- | --- |
| D1A | 1.62 |
| D1E | 2.24 |
| D1F | 2.47 |
| D1G | 1.76 |
| D1H | 1.78 |
| D1K | 2.65 |
| D1L | 2.52 |
| D1M | 2.04 |
| D1N | 2.02 |
| D1P | 1.59 |
| D1Q | 1.38 |
| D1R | 1 |
| D1T | 2.3 |
| D1V | 1.89 |
| D1Y | 1.78 |
| L2A | 1.47 |
| L2C | 2.13 |
| L2D | 2.39 |
| L2E | 1.95 |
| L2F | 1.59 |
| L2G | 1.91 |
| L2H | 1.68 |
| L2I | 1.69 |

| Variant | protein stability index |
| --- | --- |
| L2K | 1.54 |
| L2M | 1.65 |
| L2N | 2.53 |
| L2P | 1.82 |
| L2Q | 1.83 |
| L2R | 2.05 |
| L2S | 1.34 |
| L2T | 2.08 |
| L2V | 1.29 |
| L2Y | 1.93 |
| K3A | 2.75 |
| K3C | 2.27 |
| K3D | 2.57 |
| K3E | 1.9 |
| K3F | 2.12 |
| K3G | 2.54 |
| K3H | 1.93 |
| K3L | 1.83 |
| K3M | 2.06 |
| K3N | 1.43 |
| K3P | 1.07 |
| K3Q | 1.37 |
